Data as given in patent US20160194394A1 (GOVERNING COUNCIL OF THE UNIVERSITY OF TORONTO, published 2016).
Like-named read-outs stand apart in the source and are kept apart here.

Key:
[1] = molecular target: T1, FZD7 receptor expressed on cells (full-length) (UniProt O75084 33-574, limits assumed); test: cell-based or functional assay
[2] = molecular target: recombinant Frizzled receptor 7 (FZD7) cysteine-rich domain (CRD) fused to the Fc region of human IgG (human, UniProt O75084 33-185); test: SPR
[3] = molecular target: T2, recombinant Frizzled receptor 7 (FZD7) cysteine-rich domain (CRD) fused to the Fc region of human IgG (human, UniProt O75084 33-185); test: competitive ELISA, detected phage-Fab D10
[4] = molecular target: T1, FZD7 receptor expressed on cells …; test: cell-based or functional assay; remark: listed apart in the source
human Fzd8-Fc = molecular target: T3, human Fzd8-Fc; test: SPR
T3 construct: also called FZD8 ECD; Fzd8 CRD-Fc fusion protein (R&D systems); not shown: exact vendor limits of the CRD construct
T3 chain: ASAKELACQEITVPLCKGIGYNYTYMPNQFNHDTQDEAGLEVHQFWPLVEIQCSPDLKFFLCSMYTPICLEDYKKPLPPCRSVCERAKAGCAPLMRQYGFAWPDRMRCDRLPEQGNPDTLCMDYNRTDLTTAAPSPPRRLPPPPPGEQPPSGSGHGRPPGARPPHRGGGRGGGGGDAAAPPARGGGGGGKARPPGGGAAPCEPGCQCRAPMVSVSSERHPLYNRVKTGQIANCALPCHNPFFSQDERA

human Fzd5-Fc = molecular target: T4, human Fzd5-Fc; test: SPR
T4 construct: also called FZD5 ECD; Fzd5 CRD-Fc fusion protein (R&D systems); not shown: exact vendor limits of the CRD construct
T4 chain: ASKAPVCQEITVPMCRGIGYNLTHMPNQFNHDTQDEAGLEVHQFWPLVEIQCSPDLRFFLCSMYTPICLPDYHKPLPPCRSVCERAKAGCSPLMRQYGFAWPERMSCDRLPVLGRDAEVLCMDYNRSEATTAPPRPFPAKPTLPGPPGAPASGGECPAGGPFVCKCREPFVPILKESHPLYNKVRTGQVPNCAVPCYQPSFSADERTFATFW

human Fzd1-Fc = molecular target: T5, human Fzd1-Fc; test: SPR
T5 construct: also called FZD1 ECD; Fzd1 CRD-Fc fusion protein (R&D systems); not shown: exact vendor limits of the CRD construct
T5 sequence (chain, as listed by the source limits assumed): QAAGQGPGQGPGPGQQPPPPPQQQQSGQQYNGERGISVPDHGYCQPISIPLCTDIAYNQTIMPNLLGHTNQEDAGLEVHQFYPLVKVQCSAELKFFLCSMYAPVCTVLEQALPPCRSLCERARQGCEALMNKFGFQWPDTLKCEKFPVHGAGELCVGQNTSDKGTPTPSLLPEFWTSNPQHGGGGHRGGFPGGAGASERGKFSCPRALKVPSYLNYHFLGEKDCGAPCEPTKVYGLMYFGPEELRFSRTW

[5] = molecular target: T2, recombinant Frizzled receptor 7 (FZD7) …; test: SPR; remark: listed apart in the source
mouse Fzd2-Fc = molecular target: T6, mouse Fzd2-Fc; test: SPR
T6 construct: also called mFZD2 ECD; Fzd2 CRD-Fc fusion protein (R&D systems); not shown: exact vendor limits of the CRD construct
T6 sequence (chain, as listed by the source limits assumed): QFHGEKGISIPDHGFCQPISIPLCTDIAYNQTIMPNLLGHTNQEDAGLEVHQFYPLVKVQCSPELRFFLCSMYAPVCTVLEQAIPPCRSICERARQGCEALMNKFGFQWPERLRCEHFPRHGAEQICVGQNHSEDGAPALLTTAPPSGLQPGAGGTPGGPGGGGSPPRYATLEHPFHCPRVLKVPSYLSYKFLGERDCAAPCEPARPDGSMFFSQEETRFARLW

[6] = molecular target: T2, recombinant Frizzled receptor 7 (FZD7) …; test: ELISA, 1ug/ml (20nM) Fab
Procedure, shortened: (§1)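 Plates coated with 2 ug/ml FZD7-Fc or Fc protein were probed with bacterially expressed purified Fabs for 1 h at room temperature in 0.5% BSA/0.05% Tween20/PBS. Bound Fab detected with anti-FLAG-HRP for 45 min, developed with TMB and acid stop, and read as absorbance at 450 nm; n.t. = not tested.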

[7] = molecular target: T2, recombinant Frizzled receptor 7 (FZD7) …; test: SPR; remark: listed apart in the source
[8] = molecular target: T2, recombinant Frizzled receptor 7 (FZD7) …; test: competitive ELISA, detected phage-Fab E8
[9] = molecular target: T2, recombinant Frizzled receptor 7 (FZD7) …; test: competitive ELISA, detected phage-Fab H10
[10] = molecular target: T2, recombinant Frizzled receptor 7 (FZD7) …; test: competitive ELISA, detected phage-Fab G6
[11] = molecular target: T2, recombinant Frizzled receptor 7 (FZD7) …; test: competitive ELISA, detected phage-Fab G2
[12] = molecular target: T2, recombinant Frizzled receptor 7 (FZD7) …; test: ELISA, 10ug/ml (200nM) Fab
Procedure, shortened: as §1

[13] = molecular target: T1, FZD7 receptor expressed on cells …; test: flow cytometry, 200 nM Fab, MDA MB 231
Procedure, shortened: (§2)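 EDTA-harvested MDA MB 231 cells, either FZD7-overexpressing or with endogenous receptor, were blocked in 2% FBS/PBS and stained with Fab for 30 min on ice. Detection used anti-F(ab′)₂-APC (1:1000, 15 min on ice), then 1% paraformaldehyde fixation and flow cytometry. Values are percent of cells in positive gates.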

[14] = molecular target: T2, recombinant Frizzled receptor 7 (FZD7) …; test: competitive ELISA, detected phage-Fab H3
[15] = molecular target: T2, recombinant Frizzled receptor 7 (FZD7) …; test: competitive ELISA, detected phage-Fab H1
[16] = molecular target: T2, recombinant Frizzled receptor 7 (FZD7) …; test: competitive ELISA, detected phage-Fab E4
[17] = molecular target: T2, recombinant Frizzled receptor 7 (FZD7) …; test: competitive ELISA, detected phage-Fab A1
[18] = molecular target: T1, FZD7 receptor expressed on cells …; test: flow cytometry, 200 nM Fab, FZD7 over-expression line (MDA MB 231)
Procedure, shortened: as §2

[19] = molecular target: T1, FZD7 receptor expressed on cells …; test: flow cytometry, 200 nM Fab, FZD7 over-expression line (MDA MB 231) [cont'd]
Procedure, shortened: as §2

FZD4 ECD = molecular target: T7, FZD4 ECD; test: SPR
T7 construct: also called Fzd4 CRD-Fc fusion protein (R&D systems); not shown: exact vendor limits of the CRD construct
T7 chain: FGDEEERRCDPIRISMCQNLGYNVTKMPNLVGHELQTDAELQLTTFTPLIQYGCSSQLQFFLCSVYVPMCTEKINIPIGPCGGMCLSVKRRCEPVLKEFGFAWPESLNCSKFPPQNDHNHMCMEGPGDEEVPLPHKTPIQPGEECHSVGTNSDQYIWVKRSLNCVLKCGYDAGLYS

[20] = molecular target: T2, recombinant Frizzled receptor 7 (FZD7) …; test: ELISA, 10ug/ml (200nM) Fab [cont'd]
Procedure, shortened: as §1

[21] = molecular target: T1, FZD7 receptor expressed on cells …; test: flow cytometry, 200 nM Fab, MDA MB 231 [cont'd]
Procedure, shortened: as §2

[22] = molecular target: T2, recombinant Frizzled receptor 7 (FZD7) …; test: ELISA, 1ug/ml (20nM) Fab [cont'd]
Procedure, shortened: as §1

B1: IgG D10 (antibody, V domains shown)
VL: DIQMTQSPSSLSASVGDRVTITCRASQSVSSAVAWYQQKPGKAPKLLIYSASSLYSGVPSRFSGSRSGTDFTLTISSLQPEDFATYYCQQYWAPITFGQGTKVEIK
VH: EVQLVESGGGLVQPGGSLRLSCAASGFNIYYYYMHWVRQAPGKGLEWVASIYSYSGSTYYADSVKGRFTISADTSKNTAYLQMNSLRAEDTAVYYCARYASYVGYYPWALDYWGQGTLVTVSS
notes: Fab converted into full-length IgG1, made in 293F cells
IC50, Wnt3a-induced Top Flash reporter (% ligand mediated) [1]: 123 nM | Kd [2]: 1.45 nM

B2: Fab H10 (Fab)
chain 1: EVQLVESGGGLVQPGGSLRLSCAASGFNIYYYSMHWVRQAPGKGLEWVASIYSSYSYTSYADSVKGRFTISADTSKNTAYLQMNSLRAEDTAVYYCARSSPGADYGLDYWGQGTLVTVSSASTKGPSVFPLAPSSKSTSGGTAALGCLVKDYFPEPVTVSWNSGALTSGVHTFPAVLQSSGLYSLSSVVTVPSSSLGTQTYICNVNHKPSNTKVDKKVEPKSC
chain 2: DIQMTQSPSSLSASVGDRVTITCRASQSVSSAVAWYQQKPGKAPKLLIYSASSLYSGVPSRFSGSRSGTDFTLTISSLQPEDFATYYCQQWAYGPFTFGQGTKVEIKRTVAAPSVFIFPPSDSQLKSGTASVVCLLNNFYPREAKVQWKVDNALQSGNSQESVTEQDSKDSTYSLSSTLTLSKADYEKHKVYACEVTHQGLSSPVTKSFNRGECGGS
% of Fab phage in presence of 750 nM Fab [3]: 6.8% | decrease in Wnt 3a-induced transcriptional activity (TOP-FLASH luciferase reporter in MDA MB 231 cells, 400 nM Fab) [4]: > 70% | Kd (human Fzd8-Fc): 2.5 nM | Kd (human Fzd5-Fc): 3.06 nM | Kd (human Fzd1-Fc): 3.67 nM | Kd [5]: 1.03 nM | Kd (mouse Fzd2-Fc): 0.95 nM | OD 450 [6]: 3.19 | Kd [7]: 1.03 nM | koff [7]: 0.000548 s⁻¹ | kon [7]: 533000 M⁻¹ s⁻¹ | % of Fab phage in presence of 750 nM Fab [8]: 7.1% | % of Fab phage in presence of 750 nM Fab [9]: 7.4% | % of Fab phage in presence of 750 nM Fab [10]: 29.1% | % of Fab phage in presence of 750 nM Fab [11]: 7.4% | OD 450 [12]: 3.22 | % population within the positive gate [13]: 99% | % of Fab phage in presence of 750 nM Fab [14]: 27.7% | % of Fab phage in presence of 750 nM Fab [15]: 53.5% | % of Fab phage in presence of 750 nM Fab [16]: 20.9% | % of Fab phage in presence of 750 nM Fab [17]: 21.8% | % population within the positive gate [18]: 93.2%

B3: Fab A1 (Fab)
chain 1: EVQLVESGGGLVQPGGSLRLSCAASGFNISSYYIHWVRQAPGKGLEWVASIYPYYSSTYYADSVKGRFTISADTSKNTAYLQMNSLRAEDTAVYYCARVWYGAMDYWGQGTLVTVSSASTKGPSVFPLAPSSKSTSGGTAALGCLVKDYFPEPVTVSWNSGALTSGVHTFPAVLQSSGLYSLSSVVTVPSSSLGTQTYICNVNHKPSNTKVDKKVEPKSC
chain 2: DIQMTQSPSSLSASVGDRVTITCRASQSVSSAVAWYQQKPGKAPKLLIYSASSLYSGVPSRFSGSRSGTDFTLTISSLQPEDFATYYCQQYYHPITFGQGTKVEIKRTVAAPSVFIFPPSDSQLKSGTASVVCLLNNFYPREAKVQWKVDNALQSGNSQESVTEQDSKDSTYSLSSTLTLSKADYEKHKVYACEVTHQGLSSPVTKSFNRGECGGS
% of Fab phage in presence of 750 nM Fab [3]: 5% | % population within the positive gate [19]: 93.1% | decrease in Wnt 3a-induced transcriptional activity (TOP-FLASH luciferase reporter in MDA MB 231 cells, 400 nM Fab) [4]: > 70% | Kd (human Fzd8-Fc): 9.31 nM | Kd (human Fzd5-Fc): 15.8 nM | Kd (FZD4 ECD): 13.3 nM | Kd (human Fzd1-Fc): 1.07 nM | Kd [5]: 2.09 nM | Kd (mouse Fzd2-Fc): 1.75 nM | Kd [7]: 2.09 nM | koff [7]: 0.000994 s⁻¹ | kon [7]: 476000 M⁻¹ s⁻¹ | % of Fab phage in presence of 750 nM Fab [8]: 6.5% | OD 450 [20]: 3.23 | % population within the positive gate [21]: 98.6% | % of Fab phage in presence of 750 nM Fab [9]: 5.2% | % of Fab phage in presence of 750 nM Fab [10]: 8.2% | % of Fab phage in presence of 750 nM Fab [11]: 4.7% | % of Fab phage in presence of 750 nM Fab [14]: 15.1% | % of Fab phage in presence of 750 nM Fab [15]: 13.7% | % of Fab phage in presence of 750 nM Fab [16]: 7.3% | OD 450 [22]: 3.22 | % of Fab phage in presence of 750 nM Fab [17]: 4.2%
